Measured values published in FireProtDB (doi:10.3390/ijms21030752).

Settings: Homo sapiens, pH 7.5, Thermal, CD, Tris-HCl 20mM, whole UniProt chain shown

B1: Guanylyl cyclase-activating protein 1 wild type, P43080 (protein)
chain: MGNVMEGKSVEELSSTECHQWYKKFMTECPSGQLTLYEFRQFFGLKNLSPSASQYVEQMFETFDFNKDGYIDFMEYVAALSLVLKGKVEQKLRWYFKLYDVDGNGCIDRDELLTIIQAIRAINPCSDTTMTAEEFTDTVFSKIDVNGDGELSLEEFIEGVQKDQMLLDTLTRSLDLTRIVRRLQNGEQDEEGADEAAEAAG
B1 gave a Tm (KCL 150 mM) of 49.8 °C and a Tm (KCL and Mg2+ 150 mM and 1 mM) of 50.3 °C.
